Measured values: IntAct's records for PubMed 35512704

B1: Speckle-type POZ protein (Homo sapiens), O43791 (parent)
chain: MSRVPSPPPPAEMSSGPVAESWCYTQIKVVKFSYMWTINNFSFCREEMGEVIKSSTFSSGANDKLKWCLRVNPKGLDEESKDYLSLYLLLVSCPKSEVRAKFKFSILNAKGEETKAMESQRAYRFVQGKDWGFKKFIRRDFLLDEANGLLPDDKLTLFCEVSVVQDSVNISGQNTMNMVKVPECRLADELGGLWENSRFTDCCLCVAGQEFQAHKAILAARSPVFSAMFEHEMEESKKNRVEINDVEPEVFKEMMCFIYTGKAPNLDKMADDLLAAADKYALERLKVMCEDALCSNLSVENAAEILILADLHSADQLKTQAVDFINYHASDVLETSGWKSMVVSHPHLVAEAYRSLASAQCPFLGPPRKRLKQS

Variants of: B1
Conditions: with tshr_human TSHR

Row | effect of a mutation on the interaction | Variant
1 | with no effect | MSRVPSPPPPAEMSSGPVAESWCYTQIKVVKFSYMWTINNFSFCREEMGEVIKSSTFSSGANDKLKWCLRVNPKGLDEESKDYLSLYLLLVSCPKSEVRAKFKFSILNAKGEETKAMESQRAYRFVQGKDWGVKKFIRRDFLLDEANGLLPDDKLTLFCEVSVVQDSVNISGQNTMNMVKVPECRLADELGGLWENSRFTDCCLCVAGQEFQAHKAILAARSPVFSAMFEHEMEESKKNRVEINDVEPEVFKEMMCFIYTGKAPNLDKMADDLLAAADKYALERLKVMCEDALCSNLSVENAAEILILADLHSADQLKTQAVDFINYHASDVLETSGWKSMVVSHPHLVAEAYRSLASAQCPFLGPPRKRLKQS [F133V]

Variants of: B1
Conditions: with vegfa_human VEGFA

Row | effect of a mutation on the interaction | Variant
2 | with no effect | MSRVPSPPPPAEMSSGPVAESWCYTQIKVVKFSYMWTINNFSFCREEMGEVIKSSTFSSGANDKLKWCLRVNPKGLDEESKDYLSLYLLLVSCPKSEVRAKFKFSILNAKGEETKAMESQRAYRFVQGKDWGVKKFIRRDFLLDEANGLLPDDKLTLFCEVSVVQDSVNISGQNTMNMVKVPECRLADELGGLWENSRFTDCCLCVAGQEFQAHKAILAARSPVFSAMFEHEMEESKKNRVEINDVEPEVFKEMMCFIYTGKAPNLDKMADDLLAAADKYALERLKVMCEDALCSNLSVENAAEILILADLHSADQLKTQAVDFINYHASDVLETSGWKSMVVSHPHLVAEAYRSLASAQCPFLGPPRKRLKQS [F133V]

Variants of: B1
Conditions: with vhl_human VHL

Row | effect of a mutation on the interaction | Variant
3 | with no effect | MSRVPSPPPPAEMSSGPVAESWCYTQIKVVKFSYMWTINNFSFCREEMGEVIKSSTFSSGANDKLKWCLRVNPKGLDEESKDYLSLYLLLVSCPKSEVRAKFKFSILNAKGEETKAMESQRAYRFVQGKDWGVKKFIRRDFLLDEANGLLPDDKLTLFCEVSVVQDSVNISGQNTMNMVKVPECRLADELGGLWENSRFTDCCLCVAGQEFQAHKAILAARSPVFSAMFEHEMEESKKNRVEINDVEPEVFKEMMCFIYTGKAPNLDKMADDLLAAADKYALERLKVMCEDALCSNLSVENAAEILILADLHSADQLKTQAVDFINYHASDVLETSGWKSMVVSHPHLVAEAYRSLASAQCPFLGPPRKRLKQS [F133V]

Variants of: B1
Conditions: with wee1_human WEE1, P30291
wee1_human WEE1, P30291, sequence (P30291 whole entry, looked up): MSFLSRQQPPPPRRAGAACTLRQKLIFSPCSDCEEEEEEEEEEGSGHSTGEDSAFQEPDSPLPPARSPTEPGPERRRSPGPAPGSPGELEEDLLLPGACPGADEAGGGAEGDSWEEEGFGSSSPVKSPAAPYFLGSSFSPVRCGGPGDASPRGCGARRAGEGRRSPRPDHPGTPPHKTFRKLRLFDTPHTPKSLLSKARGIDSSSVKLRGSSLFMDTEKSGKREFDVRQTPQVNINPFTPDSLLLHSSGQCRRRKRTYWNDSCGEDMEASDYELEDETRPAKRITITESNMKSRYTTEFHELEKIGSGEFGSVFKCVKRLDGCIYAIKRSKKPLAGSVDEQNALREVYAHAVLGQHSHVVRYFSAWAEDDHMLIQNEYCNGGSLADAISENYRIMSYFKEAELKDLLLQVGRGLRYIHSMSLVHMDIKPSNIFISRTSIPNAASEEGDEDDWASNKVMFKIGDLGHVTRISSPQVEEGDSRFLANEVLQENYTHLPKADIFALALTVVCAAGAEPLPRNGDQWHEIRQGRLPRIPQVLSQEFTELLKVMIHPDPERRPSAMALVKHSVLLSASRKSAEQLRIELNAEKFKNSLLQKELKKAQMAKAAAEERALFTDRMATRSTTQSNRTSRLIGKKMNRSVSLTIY

Row | effect of a mutation on the interaction | Variant
4 | with no effect | MSRVPSPPPPAEMSSGPVAESWCYTQIKVVKFSYMWTINNFSFCREEMGEVIKSSTFSSGANDKLKWCLRVNPKGLDEESKDYLSLYLLLVSCPKSEVRAKFKFSILNAKGEETKAMESQRAYRFVQGKDWGVKKFIRRDFLLDEANGLLPDDKLTLFCEVSVVQDSVNISGQNTMNMVKVPECRLADELGGLWENSRFTDCCLCVAGQEFQAHKAILAARSPVFSAMFEHEMEESKKNRVEINDVEPEVFKEMMCFIYTGKAPNLDKMADDLLAAADKYALERLKVMCEDALCSNLSVENAAEILILADLHSADQLKTQAVDFINYHASDVLETSGWKSMVVSHPHLVAEAYRSLASAQCPFLGPPRKRLKQS [F133V]

Variants of: B1
Conditions: with wwtr1_human WWTR1, Q9GZV5
wwtr1_human WWTR1, Q9GZV5, sequence (Q9GZV5 whole entry): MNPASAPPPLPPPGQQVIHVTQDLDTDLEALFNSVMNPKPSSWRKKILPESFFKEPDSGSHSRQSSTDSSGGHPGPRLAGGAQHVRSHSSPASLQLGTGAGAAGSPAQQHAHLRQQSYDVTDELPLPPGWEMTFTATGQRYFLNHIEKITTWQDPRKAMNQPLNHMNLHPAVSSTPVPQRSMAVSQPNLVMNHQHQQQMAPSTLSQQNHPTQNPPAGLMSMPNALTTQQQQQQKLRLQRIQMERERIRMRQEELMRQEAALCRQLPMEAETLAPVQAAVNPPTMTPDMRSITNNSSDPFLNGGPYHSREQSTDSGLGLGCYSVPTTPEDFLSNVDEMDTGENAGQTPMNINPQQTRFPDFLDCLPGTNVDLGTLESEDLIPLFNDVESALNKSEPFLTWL

Row | effect of a mutation on the interaction | Variant
5 | with no effect | MSRVPSPPPPAEMSSGPVAESWCYTQIKVVKFSYMWTINNFSFCREEMGEVIKSSTFSSGANDKLKWCLRVNPKGLDEESKDYLSLYLLLVSCPKSEVRAKFKFSILNAKGEETKAMESQRAYRFVQGKDWGVKKFIRRDFLLDEANGLLPDDKLTLFCEVSVVQDSVNISGQNTMNMVKVPECRLADELGGLWENSRFTDCCLCVAGQEFQAHKAILAARSPVFSAMFEHEMEESKKNRVEINDVEPEVFKEMMCFIYTGKAPNLDKMADDLLAAADKYALERLKVMCEDALCSNLSVENAAEILILADLHSADQLKTQAVDFINYHASDVLETSGWKSMVVSHPHLVAEAYRSLASAQCPFLGPPRKRLKQS [F133V]

Variants of: B1
Conditions: with xpo1_human XPO1, O14980
xpo1_human XPO1, O14980, sequence (O14980 whole entry): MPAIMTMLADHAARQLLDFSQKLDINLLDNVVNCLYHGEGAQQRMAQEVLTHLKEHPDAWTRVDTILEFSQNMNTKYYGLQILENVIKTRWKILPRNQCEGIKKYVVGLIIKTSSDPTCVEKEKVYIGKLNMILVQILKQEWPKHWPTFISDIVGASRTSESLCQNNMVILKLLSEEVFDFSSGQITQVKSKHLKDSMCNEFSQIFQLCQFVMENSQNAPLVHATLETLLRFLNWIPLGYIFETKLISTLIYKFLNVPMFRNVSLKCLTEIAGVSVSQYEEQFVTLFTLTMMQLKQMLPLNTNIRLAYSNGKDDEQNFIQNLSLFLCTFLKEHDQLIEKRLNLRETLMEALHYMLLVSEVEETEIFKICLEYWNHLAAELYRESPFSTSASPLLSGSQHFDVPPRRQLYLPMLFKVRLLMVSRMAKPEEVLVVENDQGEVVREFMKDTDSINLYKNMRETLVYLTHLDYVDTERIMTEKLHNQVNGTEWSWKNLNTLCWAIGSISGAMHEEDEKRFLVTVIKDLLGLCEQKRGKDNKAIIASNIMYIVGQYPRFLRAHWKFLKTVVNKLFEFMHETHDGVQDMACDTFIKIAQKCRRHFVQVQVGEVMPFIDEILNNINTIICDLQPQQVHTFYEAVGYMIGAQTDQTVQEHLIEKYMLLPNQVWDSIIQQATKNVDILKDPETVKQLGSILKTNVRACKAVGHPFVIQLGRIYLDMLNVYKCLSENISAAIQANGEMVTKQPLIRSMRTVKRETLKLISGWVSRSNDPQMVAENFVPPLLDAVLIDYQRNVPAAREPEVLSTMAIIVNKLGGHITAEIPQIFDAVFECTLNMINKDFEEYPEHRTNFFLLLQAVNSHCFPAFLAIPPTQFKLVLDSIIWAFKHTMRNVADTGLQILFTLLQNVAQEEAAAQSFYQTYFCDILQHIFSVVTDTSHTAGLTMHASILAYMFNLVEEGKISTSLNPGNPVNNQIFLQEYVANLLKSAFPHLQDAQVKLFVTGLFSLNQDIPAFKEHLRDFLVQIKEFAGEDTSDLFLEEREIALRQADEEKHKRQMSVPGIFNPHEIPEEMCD

Row | effect of a mutation on the interaction | Variant
6 | with no effect | MSRVPSPPPPAEMSSGPVAESWCYTQIKVVKFSYMWTINNFSFCREEMGEVIKSSTFSSGANDKLKWCLRVNPKGLDEESKDYLSLYLLLVSCPKSEVRAKFKFSILNAKGEETKAMESQRAYRFVQGKDWGVKKFIRRDFLLDEANGLLPDDKLTLFCEVSVVQDSVNISGQNTMNMVKVPECRLADELGGLWENSRFTDCCLCVAGQEFQAHKAILAARSPVFSAMFEHEMEESKKNRVEINDVEPEVFKEMMCFIYTGKAPNLDKMADDLLAAADKYALERLKVMCEDALCSNLSVENAAEILILADLHSADQLKTQAVDFINYHASDVLETSGWKSMVVSHPHLVAEAYRSLASAQCPFLGPPRKRLKQS [F133V]

Variants of: B1
Conditions: with cblb_human CBLB

Row | effect of a mutation on the interaction | Variant
7 | causing an interaction | MSRVPSPPPPAEMSSGPVAESWCYTQIKVVKFSYMWTINNFSFCREEMGEVIKSSTFSSGANDKLKWCLRVNPKGLDEESKDYLSLYLLLVSCPKSEVRAKFKFSILNAKGEETKAMESQRAYRFVQGKDWGVKKFIRRDFLLDEANGLLPDDKLTLFCEVSVVQDSVNISGQNTMNMVKVPECRLADELGGLWENSRFTDCCLCVAGQEFQAHKAILAARSPVFSAMFEHEMEESKKNRVEINDVEPEVFKEMMCFIYTGKAPNLDKMADDLLAAADKYALERLKVMCEDALCSNLSVENAAEILILADLHSADQLKTQAVDFINYHASDVLETSGWKSMVVSHPHLVAEAYRSLASAQCPFLGPPRKRLKQS [F133V]

Variants of: B1
Conditions: with jun_human JUN

Row | effect of a mutation on the interaction | Variant
8 | causing an interaction | MSRVPSPPPPAEMSSGPVAESWCYTQIKVVKFSYMWTINNFSFCREEMGEVIKSSTFSSGANDKLKWCLRVNPKGLDEESKDYLSLYLLLVSCPKSEVRAKFKFSILNAKGEETKAMESQRAYRFVQGKDWGVKKFIRRDFLLDEANGLLPDDKLTLFCEVSVVQDSVNISGQNTMNMVKVPECRLADELGGLWENSRFTDCCLCVAGQEFQAHKAILAARSPVFSAMFEHEMEESKKNRVEINDVEPEVFKEMMCFIYTGKAPNLDKMADDLLAAADKYALERLKVMCEDALCSNLSVENAAEILILADLHSADQLKTQAVDFINYHASDVLETSGWKSMVVSHPHLVAEAYRSLASAQCPFLGPPRKRLKQS [F133V]

Variants of: B1
Conditions: with kdm6a_human KDM6A

Row | effect of a mutation on the interaction | Variant
9 | causing an interaction | MSRVPSPPPPAEMSSGPVAESWCYTQIKVVKFSYMWTINNFSFCREEMGEVIKSSTFSSGANDKLKWCLRVNPKGLDEESKDYLSLYLLLVSCPKSEVRAKFKFSILNAKGEETKAMESQRAYRFVQGKDWGVKKFIRRDFLLDEANGLLPDDKLTLFCEVSVVQDSVNISGQNTMNMVKVPECRLADELGGLWENSRFTDCCLCVAGQEFQAHKAILAARSPVFSAMFEHEMEESKKNRVEINDVEPEVFKEMMCFIYTGKAPNLDKMADDLLAAADKYALERLKVMCEDALCSNLSVENAAEILILADLHSADQLKTQAVDFINYHASDVLETSGWKSMVVSHPHLVAEAYRSLASAQCPFLGPPRKRLKQS [F133V]

Variants of: B1
Conditions: with pax5_human PAX5, Q02548
pax5_human PAX5, Q02548, sequence (Q02548 whole entry): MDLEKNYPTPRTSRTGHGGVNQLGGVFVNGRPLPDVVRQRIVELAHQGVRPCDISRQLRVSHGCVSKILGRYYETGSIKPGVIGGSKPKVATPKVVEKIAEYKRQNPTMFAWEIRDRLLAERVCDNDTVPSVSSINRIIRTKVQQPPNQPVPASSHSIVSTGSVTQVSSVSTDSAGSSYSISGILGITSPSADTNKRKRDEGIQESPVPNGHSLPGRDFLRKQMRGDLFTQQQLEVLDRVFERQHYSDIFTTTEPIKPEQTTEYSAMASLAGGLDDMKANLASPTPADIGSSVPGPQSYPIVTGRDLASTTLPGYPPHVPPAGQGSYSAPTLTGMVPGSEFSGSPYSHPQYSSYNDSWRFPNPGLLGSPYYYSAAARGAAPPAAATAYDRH

Row | effect of a mutation on the interaction | Variant
10 | causing an interaction | MSRVPSPPPPAEMSSGPVAESWCYTQIKVVKFSYMWTINNFSFCREEMGEVIKSSTFSSGANDKLKWCLRVNPKGLDEESKDYLSLYLLLVSCPKSEVRAKFKFSILNAKGEETKAMESQRAYRFVQGKDWGVKKFIRRDFLLDEANGLLPDDKLTLFCEVSVVQDSVNISGQNTMNMVKVPECRLADELGGLWENSRFTDCCLCVAGQEFQAHKAILAARSPVFSAMFEHEMEESKKNRVEINDVEPEVFKEMMCFIYTGKAPNLDKMADDLLAAADKYALERLKVMCEDALCSNLSVENAAEILILADLHSADQLKTQAVDFINYHASDVLETSGWKSMVVSHPHLVAEAYRSLASAQCPFLGPPRKRLKQS [F133V]

Variants of: B1
Conditions: with PIK3C2B

Row | effect of a mutation on the interaction | Variant
11 | causing an interaction | MSRVPSPPPPAEMSSGPVAESWCYTQIKVVKFSYMWTINNFSFCREEMGEVIKSSTFSSGANDKLKWCLRVNPKGLDEESKDYLSLYLLLVSCPKSEVRAKFKFSILNAKGEETKAMESQRAYRFVQGKDWGVKKFIRRDFLLDEANGLLPDDKLTLFCEVSVVQDSVNISGQNTMNMVKVPECRLADELGGLWENSRFTDCCLCVAGQEFQAHKAILAARSPVFSAMFEHEMEESKKNRVEINDVEPEVFKEMMCFIYTGKAPNLDKMADDLLAAADKYALERLKVMCEDALCSNLSVENAAEILILADLHSADQLKTQAVDFINYHASDVLETSGWKSMVVSHPHLVAEAYRSLASAQCPFLGPPRKRLKQS [F133V]

Variants of: B1
Conditions: with e2f5_human E2F5, Q15329
e2f5_human E2F5, Q15329, sequence (Q15329 whole entry): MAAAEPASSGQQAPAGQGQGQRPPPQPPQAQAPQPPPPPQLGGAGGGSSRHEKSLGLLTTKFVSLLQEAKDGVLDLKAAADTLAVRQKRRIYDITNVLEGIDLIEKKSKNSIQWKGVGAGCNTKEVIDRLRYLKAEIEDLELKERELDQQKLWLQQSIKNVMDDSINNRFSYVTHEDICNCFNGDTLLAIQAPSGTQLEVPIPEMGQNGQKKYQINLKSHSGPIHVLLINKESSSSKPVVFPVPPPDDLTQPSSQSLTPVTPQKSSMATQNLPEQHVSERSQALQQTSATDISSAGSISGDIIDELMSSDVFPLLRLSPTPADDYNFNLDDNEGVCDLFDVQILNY

Row | effect of a mutation on the interaction | Variant
12 | causing an interaction | MSRVPSPPPPAEMSSGPVAESWCYTQIKVVKFSYMWTINNFSFCREEMGEVIKSSTFSSGANDKLKWCLRVNPKGLDEESKDYLSLYLLLVSCPKSEVRAKFKFSILNAKGEETKAMESQRAYRFVQGKDWGVKKFIRRDFLLDEANGLLPDDKLTLFCEVSVVQDSVNISGQNTMNMVKVPECRLADELGGLWENSRFTDCCLCVAGQEFQAHKAILAARSPVFSAMFEHEMEESKKNRVEINDVEPEVFKEMMCFIYTGKAPNLDKMADDLLAAADKYALERLKVMCEDALCSNLSVENAAEILILADLHSADQLKTQAVDFINYHASDVLETSGWKSMVVSHPHLVAEAYRSLASAQCPFLGPPRKRLKQS [F133V]

Variants of: B1
Conditions: with cul3_human CUL3, Q13618
cul3_human CUL3, Q13618, sequence (Q13618 whole entry): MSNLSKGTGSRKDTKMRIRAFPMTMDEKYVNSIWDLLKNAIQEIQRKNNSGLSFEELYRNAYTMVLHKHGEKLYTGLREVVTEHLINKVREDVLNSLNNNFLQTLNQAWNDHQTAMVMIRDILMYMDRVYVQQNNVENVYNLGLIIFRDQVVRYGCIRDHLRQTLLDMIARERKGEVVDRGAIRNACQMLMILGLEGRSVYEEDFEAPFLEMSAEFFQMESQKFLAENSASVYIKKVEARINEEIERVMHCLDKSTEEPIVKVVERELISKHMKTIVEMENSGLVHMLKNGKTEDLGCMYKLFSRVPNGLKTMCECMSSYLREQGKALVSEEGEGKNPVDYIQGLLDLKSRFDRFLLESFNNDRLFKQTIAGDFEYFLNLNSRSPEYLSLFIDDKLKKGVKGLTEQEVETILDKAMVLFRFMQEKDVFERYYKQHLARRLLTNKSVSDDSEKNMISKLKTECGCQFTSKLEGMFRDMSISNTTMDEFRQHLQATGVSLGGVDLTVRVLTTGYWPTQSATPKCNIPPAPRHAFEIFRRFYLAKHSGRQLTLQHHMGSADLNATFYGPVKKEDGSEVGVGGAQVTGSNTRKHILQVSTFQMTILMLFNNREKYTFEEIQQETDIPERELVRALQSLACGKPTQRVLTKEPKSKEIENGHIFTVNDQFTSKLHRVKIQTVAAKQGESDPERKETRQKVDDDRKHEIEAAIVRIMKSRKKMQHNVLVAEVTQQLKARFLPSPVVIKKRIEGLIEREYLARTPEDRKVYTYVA

Row | effect of a mutation on the interaction | Variant
13 | increasing interaction strength | MSRVPSPPPPAEMSSGPVAESWCYTQIKVVKFSYMWTINNFSFCREEMGEVIKSSTFSSGANDKLKWCLRVNPKGLDEESKDYLSLYLLLVSCPKSEVRAKFKFSILNAKGEETKAMESQRAYRFVQGKDWGVKKFIRRDFLLDEANGLLPDDKLTLFCEVSVVQDSVNISGQNTMNMVKVPECRLADELGGLWENSRFTDCCLCVAGQEFQAHKAILAARSPVFSAMFEHEMEESKKNRVEINDVEPEVFKEMMCFIYTGKAPNLDKMADDLLAAADKYALERLKVMCEDALCSNLSVENAAEILILADLHSADQLKTQAVDFINYHASDVLETSGWKSMVVSHPHLVAEAYRSLASAQCPFLGPPRKRLKQS [F133V]

Variants of: B1
Conditions: with etv1_human ETV1, P50549
etv1_human ETV1, P50549, sequence (P50549 whole entry): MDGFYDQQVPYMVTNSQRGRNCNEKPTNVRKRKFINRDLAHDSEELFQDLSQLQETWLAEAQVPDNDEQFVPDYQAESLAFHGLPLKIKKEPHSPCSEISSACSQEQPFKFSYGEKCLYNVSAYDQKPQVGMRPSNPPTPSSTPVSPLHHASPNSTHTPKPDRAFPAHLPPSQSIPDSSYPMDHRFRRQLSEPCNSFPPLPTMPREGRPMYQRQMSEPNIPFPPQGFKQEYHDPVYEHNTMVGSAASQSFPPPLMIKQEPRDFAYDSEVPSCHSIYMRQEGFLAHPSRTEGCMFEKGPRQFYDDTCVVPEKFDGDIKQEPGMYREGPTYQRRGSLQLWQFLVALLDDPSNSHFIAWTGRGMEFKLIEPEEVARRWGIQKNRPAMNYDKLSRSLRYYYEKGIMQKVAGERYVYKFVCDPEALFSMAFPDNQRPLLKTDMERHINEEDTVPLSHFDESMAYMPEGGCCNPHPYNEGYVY

Row | effect of a mutation on the interaction | Variant
14 | decreasing interaction strength | MSRVPSPPPPAEMSSGPVAESWCYTQIKVVKFSYMWTINNFSFCREEMGEVIKSSTFSSGANDKLKWCLRVNPKGLDEESKDYLSLYLLLVSCPKSEVRAKFKFSILNAKGEETKAMESQRAYRFVQGKDWGVKKFIRRDFLLDEANGLLPDDKLTLFCEVSVVQDSVNISGQNTMNMVKVPECRLADELGGLWENSRFTDCCLCVAGQEFQAHKAILAARSPVFSAMFEHEMEESKKNRVEINDVEPEVFKEMMCFIYTGKAPNLDKMADDLLAAADKYALERLKVMCEDALCSNLSVENAAEILILADLHSADQLKTQAVDFINYHASDVLETSGWKSMVVSHPHLVAEAYRSLASAQCPFLGPPRKRLKQS [F133V]
